Reference: patent US20200216522A1 (published 2020)
One block for each binder: values may come before it.

Target: full-length human Tau (Tau441; 2N4R), recombinant (UniProt P10636 1-758)
Test: SPR (Biacore); 25°C

Sequence of full-length human Tau (Tau441; 2N4R), recombinant (P10636 other isoform, or with tags, fused parts or gaps): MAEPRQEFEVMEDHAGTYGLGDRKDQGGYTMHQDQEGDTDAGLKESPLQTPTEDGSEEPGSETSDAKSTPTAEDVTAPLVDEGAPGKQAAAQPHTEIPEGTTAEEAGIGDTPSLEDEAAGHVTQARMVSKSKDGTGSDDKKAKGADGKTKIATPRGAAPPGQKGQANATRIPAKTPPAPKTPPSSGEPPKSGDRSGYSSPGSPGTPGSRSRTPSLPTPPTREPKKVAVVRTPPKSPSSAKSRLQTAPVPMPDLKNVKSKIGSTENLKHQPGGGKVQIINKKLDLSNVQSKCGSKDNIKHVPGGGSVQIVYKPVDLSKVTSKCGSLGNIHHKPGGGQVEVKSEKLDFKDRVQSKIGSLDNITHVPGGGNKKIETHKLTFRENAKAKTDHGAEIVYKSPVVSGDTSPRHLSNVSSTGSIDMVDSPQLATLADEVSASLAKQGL

Kd: 0.155 nM
B1: chimeric IgG clone 1A5 (antibody, V domains shown)
VH: EVQLQQSGAELVRPGASVKLSCTASGFNIKDSLIHWVKQRPEQGLEWIGWIDPEDGETKYAPKFQDKATKTADTSSNTAYLQLSSLTSEDTAIYYCASGEWDYWGQGTSVTVSS
VL: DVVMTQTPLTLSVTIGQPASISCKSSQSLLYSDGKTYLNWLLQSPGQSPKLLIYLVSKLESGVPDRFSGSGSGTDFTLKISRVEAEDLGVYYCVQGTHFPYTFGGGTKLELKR

Kd: 0.0946 nM
B2: chimeric IgG clone 1G7 (antibody, V domains shown)
VH: EVQLQQSGAEVVRPGASVKLSCTTSGFNIKDSLMHWLKQRPEQGLEWIGWIDPEDGETKYAPKFQDKATITADTSSNTAYLQLSSLTSGDTAIYYCARRDWEGPWGQGTLVTVSA
VL: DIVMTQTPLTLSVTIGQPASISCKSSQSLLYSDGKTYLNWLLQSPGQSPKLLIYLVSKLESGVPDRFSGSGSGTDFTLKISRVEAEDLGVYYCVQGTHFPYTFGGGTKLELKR
